Experimental data: article PMC3873694

Legend:
[1] = target: adult muscle nicotinic acetylcholine receptor (α1β1εδ), mouse (mouse) (UniProt P04756)
[2] = target: fetal muscle nicotinic acetylcholine receptor (α1β1γδ), mouse (mouse) (UniProt P04756)
[3] = target: fetal muscle nicotinic acetylcholine receptor (α1β1γδ), mouse (mouse) (UniProt P04756); remark: listed apart in the source

With “Fraction 4 of the tentacle venom extract (TVE) of the jellyfish Aurelia aurita” as the substance, how does the IC50 of inhibition of ACh-elicited currents, two-electrode voltage clamp on X. laevis oocytes expressing the receptor [1] read?
The IC50 of inhibition of ACh-elicited currents, two-electrode voltage clamp on X. laevis oocytes expressing the receptor was 2280 µg/mL.

What about the IC50 of inhibition of ACh-elicited currents, two-electrode voltage clamp on X. laevis oocytes expressing the receptor [2] of the same substance?
The IC50 of inhibition of ACh-elicited currents, two-electrode voltage clamp on X. laevis oocytes expressing the receptor was 1770 µg/mL.

What about the percent block of ACh-elicited currents at 1.5, 3 and 4.5 μg total protein of fraction 4 (25%, 50%, 96%), voltage clamp on X. laevis oocytes [3] of the same substance?
The percent block of ACh-elicited currents at 1.5, 3 and 4.5 μg total protein of fraction 4 (25%, 50%, 96%), voltage clamp on X. laevis oocytes was 96%.
